Data: patent US8372950B2, “IgG binding peptide” (Kagoshima University, priority 2006, dated 2013)

Assay: molecular sieve chromatography of acid-denatured MRA
Format: physicochemical
Settings: acid treated pH 2.7, 30° C., 10 minutes, purified on IMGpep-4K6R column, FIG. 15C
Experimental: First, 20 μl of 1 M glycine-HCl (pH 2.7) was added to 200 μl of humanized anti-human IL-6 receptor IgG antibody (MRA) (2000 μg/ml, PBS solution). The solution was incubated for 10 minutes at 30° C. and then 30 μl of 1 M Tris-HCl (pH 8.7) was added thereto for neutralization to prepare an acid-treated antibody sample. Also, a biotinylated IMGPep-4K6R peptide-immobilized column was prepared in a manner similar to that in Example 10. An acid-treated antibody sample was injected at a flow rate of 0.4 ml/min to the column and then gradient elution was carried out using from 20 mM phosphate buffered saline (PBS, pH 7.0) containing 0.1M NaCl to 0.1M glycine-HCl (pH 2.5) containing 0.1M NaCl. The thus eluted IgG was a purified acid-denatured humanized anti-human IL-6 receptor IgG antibody (MRA).
Subsequently, the purified acid-denatured MRA was subjected to molecular sieve chromatography using a HiLoad Sperdex 200 16/60 column (GE Healthcare). Similarly, untreated MRA, an acid-treated antibody sample, and a flow-through fraction (undenatured MRA) obtained via injection of an acid-treated antibody sample to a biotinylated IMGPep-4K6R peptide-immobilized column, were also separately subjected to molecular sieve chromatography using a HiLoad Sperdex 200 16/60 column (GE Healthcare). […]

Substance: MRA: Humanized anti-human IL-6 receptor monoclonal IgG antibody, Chugai Pharmaceutical
- monomers in purified acid-denatured MRA: approximately 65%
